# Data: patent publication US20230357424A1 (published 2023)
# B1: 1A10 VHH, His-tagged (VHH)
# VHH: QVQLQAFGGGLVQAGGSLGLSCSASGTIFNLDYMGWYRQALGKQRELVATITSDGRTNYADSVKGRFTIFRDGAKNAILMQMNSLKPEDTAVYYCKAYLSGRSDYWGQGTQVTVSS
# notes: Clonotype 10; not shown: His tag
# B2: 1D6 VHH, His-tagged (VHH)
# VHH: QVQLQESGGGSVQAGGSLGLFCSASGTIFNIDVMGWYRQAPGKQRELVATITSDGRTNYADSVKGRFTISRDGAKNAVHVQMNSLKPEDTAVYYCKAYLSGRSDYWGQGTQVTVSS
# notes: as for B1
# B3: 2D6 VHH, His-tagged (VHH)
# VHH: QVQLQESGGGLVQAGASLRLSCAASGRTFSSFMGWFRQAPGKERKFVATINWNGGATGYADSVKGRFTISRDNAKNTLYLQMNSLKPEDTAVYYCAAARTGSAYYTSSDAGEYNYWGQGTQVTVSS
# notes: Clonotype 6; not shown: His tag
# B4: 1G1 VHH, His-tagged (VHH)
# VHH: QVQLQASGGGLVQAGGSLRLSCAASGRTVSSDAMGWFRQAPGKEREFVAAINWNGASTYYGDSAQGRFTISRDNAKNTVYLQMNSLKSEDTAVYYCAASDWVVGGISLMNGAEYKYWGQGTLVTVSS
# notes: Clonotype 7; not shown: His tag
# B5: 4B2 anti-CD45 antibody, recombinant mouse IgG2a (antibody, from another filing, V domains shown)
# VH: GVQLQESGAELARPGASVKMSCKASGYTFTSYTMQWVKQRPGQGLEWIGYINPSSGYIKYNQKFKDKVTLTADKSSTTAYMQLSRLTSEDSAVYYCARRGSYFFDFWGQGTSVTVSS
# VL: DIVITQDELSNPVTSGESVSISCRSSKSLLYKDGKTYLNWFLQRPGQSPQLLIYLMSTRASGVSDRFSGSGSGTDFTLEISRVKAEDVGVYYCQQLVEYPFTFGGGTKLEVK
# B6: gap8.3 anti-CD45 antibody, recombinant mouse IgG2a (antibody, from another filing, V domains shown)
# VH: EVQLQQSGPELVKTGASVKISCKASGYSFTGYFIHWVKQSHGKSLEWIGYISCYNGATSYNQKFKGKATFTVDTSSSTAYMQFNSVTSEDSAVYYCVRNYYGNLDAMDYWGQGTSVTVSS
# VL: DIVMTQSHKFMSTSVGDRVSITCKASQDVSTAVAWYQQKPGQSPKILIYSASYRYTGVPDRFTGSGSGTDFTFTISSVQAEDLAVYYCQQHYSTPRTFGGGTKLEIK
# B7: 4B2 scFv linked to a human IgG1 Fc domain (scFv, from another filing, V domains shown)
# VH: GVQLQESGAELARPGASVKMSCKASGYTFTSYTMQWVKQRPGQGLEWIGYINPSSGYIKYNQKFKDKVTLTADKSSTTAYMQLSRLTSEDSAVYYCARRGSYFFDFWGQGTSVTVSS
# VL: DIVITQDELSNPVTSGESVSISCRSSKSLLYKDGKTYLNWFLQRPGQSPQLLIYLMSTRASGVSDRFSGSGSGTDFTLEISRVKAEDVGVYYCQQLVEYPFTFGGGTKLEVK
# B8: gap8.3 scFv linked to a human IgG1 Fc domain (scFv, from another filing, V domains shown)
# VH: EVQLQQSGPELVKTGASVKISCKASGYSFTGYFIHWVKQSHGKSLEWIGYISCYNGATSYNQKFKGKATFTVDTSSSTAYMQFNSVTSEDSAVYYCVRNYYGNLDAMDYWGQGTSVTVSS
# VL: DIVMTQSHKFMSTSVGDRVSITCKASQDVSTAVAWYQQKPGQSPKILIYSASYRYTGVPDRFTGSGSGTDFTFTISSVQAEDLAVYYCQQHYSTPRTFGGGTKLEIK
# B9: 1A10 VHH monomeric Fc fusion (Fc fusion)
# VHH: QVQLQAFGGGLVQAGGSLGLSCSASGTIFNLDYMGWYRQALGKQRELVATITSDGRTNYADSVKGRFTIFRDGAKNAILMQMNSLKPEDTAVYYCKAYLSGRSDYWGQGTQVTVSS
# notes: Clonotype 10; Construct used for SPR; not shown: monomeric Fc tag
# B10: 1D6 VHH monomeric Fc fusion (Fc fusion)
# VHH: QVQLQESGGGSVQAGGSLGLFCSASGTIFNIDVMGWYRQAPGKQRELVATITSDGRTNYADSVKGRFTISRDGAKNAVHVQMNSLKPEDTAVYYCKAYLSGRSDYWGQGTQVTVSS
# notes: as for B9
# B11: 1G1 VHH monomeric Fc fusion (Fc fusion)
# VHH: QVQLQASGGGLVQAGGSLRLSCAASGRTVSSDAMGWFRQAPGKEREFVAAINWNGASTYYGDSAQGRFTISRDNAKNTVYLQMNSLKSEDTAVYYCAASDWVVGGISLMNGAEYKYWGQGTLVTVSS
# notes: Clonotype 7; Construct used for SPR; not shown: monomeric Fc tag
# B12: 2F8 VHH monomeric Fc fusion (Fc fusion)
# VHH: QVQLQQFGGGLVQAGGSLRLSCAASGRTFSGYAMGWFRQAPGKEREFVAAINWSGGSTYYADSVKGRYTISRDNAKNTGYLQMNSLKSEDTAVYYCAASDWVVGGISLMNGAEYKYWGQGTLVTVSS
# notes: as for B11
# B13: 2C5 VHH monomeric Fc fusion (Fc fusion)
# VHH: QVQLQEFGGGLVQAGASLRLSCAASGGTFSYFMGWFRQAPGKEREFVATINRNGGATGYADSVKGRFTISRDNAKNTLYLQMDSVTPEDTAVYYCAAARESSVYYTSTDPAEYGYWGQGTQVTVSS
# notes: Clonotype 6; Construct used for SPR; not shown: monomeric Fc tag
# B14: 2G4 VHH monomeric Fc fusion (Fc fusion)
# VHH: QVQLQEFGGGLVQAGGSLRLSCAASGSISRINAMGWYRQAPGKQRELVAVITSGGSTHYADSVKGRFTISRDNAKNTLYLQMNSLKPEDTAVYYCNGRRKTTGWGSLREWEGSRDPDEYNYWGQGTLVTVSS
# notes: Clonotype 2; Construct used for SPR; not shown: monomeric Fc tag
# B15: 1E4 VHH monomeric Fc fusion (Fc fusion)
# VHH: QVQLQESGGGLVQPGGSLRLSCAASGGTFSDYGMGWFRQAPGKEREFVSSISWSGNSVYYAGAVRGRFTISRDNAKNTVYLQMNSLQPEDTAVYYCAASSTWNNNDPTEYEYWGQGTLVTVSS
# notes: Clonotype 3; Construct used for SPR; not shown: monomeric Fc tag
# B16: 2H7 VHH monomeric Fc fusion (Fc fusion)
# VHH: QVQLQESGGGLVQAGGSLRLSCAASGRTFSTHAMGWFRQAPGKEREFVAAIAWSGGSTYYADSVKGRFTISRDISKNTIYLQMNSLKPEDTALYYCAATNGGAWHYHERYFGSWGQGTLVTVSS
# notes: Clonotype 8; Construct used for SPR; not shown: monomeric Fc tag
# Target: T1, hCD45 D3 domain displayed on yeast as Aga2 fusion (human)
# T1 construct: not shown: Aga2p anchor protein for yeast surface expression
# T1 chain: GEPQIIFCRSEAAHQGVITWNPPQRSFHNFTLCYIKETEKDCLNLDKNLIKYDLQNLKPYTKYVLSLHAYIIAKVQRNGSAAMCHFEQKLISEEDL
# Assay: epitope mapping (yeast display) and affinity studies; grade in column Notes
# Procedure: (§1) CD45 domains described in FIG. 2 were fused to the C-term of Aga2 with an N-term FLAG and C-term c-Myc tag. Yeast constructs were expressed on the surface of yeast (S. cervisiae ATCC strain YVH10). Yeast were grown overnight at 30C in synthetic selective media SD-SCAA, then induced again overnight at 20° C. in SG-SCAA. Yeast were incubated with individual a-CD45 antibodies or a-CD45 VHH for 60 minutes on ice, washed, and incubated with anti-mouse/anti-human Fc or anti-VHH Alexa647 secondary antibody as well as an anti-FLAG or anti-c-Myc Alexa488 secondary antibody. Labeled yeast were analyzed by flow cytometry on a Beckman Coulter Cytoflex® and analyzed using the FlowJo® software package.
# (§2) The results of the epitope mapping of the VHHs described above conducted in substantial accordance with the teaching of Example 3 and the affinity measurements conducted in substantial accordance with the teaching of Example 4 above are summarized in the following Table 7 and the sequences of the VHHs and corresponding CDRs are provide in Table 4 above: […]
row,Molecule,binding result
1,B1,binds
2,B2,binds

# Target: T2, hCD45 D4 domain displayed on yeast as Aga2 fusion (human, UniProt P08575 479-571)
# T2 construct: not shown: Aga2p anchor protein for yeast surface expression
# T2 sequence: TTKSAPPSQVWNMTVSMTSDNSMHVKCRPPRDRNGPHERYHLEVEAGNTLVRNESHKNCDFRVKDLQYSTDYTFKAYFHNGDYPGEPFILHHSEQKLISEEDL
# Assay: as above
# Procedure: as §1, §2
row,Molecule,binding result
1,B3,binds

# Target: T3, hCD45 D1 domain displayed on yeast as Aga2 fusion (human)
# T3 construct: not shown: Aga2p anchor protein for yeast surface expression
# T3 chain: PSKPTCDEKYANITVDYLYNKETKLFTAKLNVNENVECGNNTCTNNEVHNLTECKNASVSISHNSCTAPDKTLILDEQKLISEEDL
# Assay: as above
# Procedure: as §1, §2
row,Molecule,binding result
1,B4,binds

# Target: human CD45 D1-D4 (amino acids 194-578) with C-terminal 8xHis tag (human) (UniProt P08575)
# Assay: SPR, Biacore T200, single cycle kinetics; IgG captured on Protein A chip, CD45 D1-D4 as analyte
row,Molecule,Kd
1,"9.4 anti-CD45 antibody, recombinant mouse IgG2a",2.4 nM
2,B5,17 nM
3,B6,21 nM

# Target: human CD45 D1-D4 (amino acids 194-578) with C-terminal 8xHis tag (human) (UniProt P08575)
# Assay: SPR, Biacore T200, single cycle kinetics; scFv-Fc captured on Protein A chip, CD45 D1-D4 as analyte
row,Molecule,Kd
1,9.4 scFv linked to a human IgG1 Fc domain,18 nM
2,B7,12 nM
3,B8,40 nM

# Target: T4, human CD45 D1-D4 (amino acids 194-578) with C-terminal 8xHis tag (human, UniProt P08575 194-578)
# T4 construct: Made in house in expi293 cells; SPR analyte; also called D1-D4 region of human CD45RO
# T4 sequence: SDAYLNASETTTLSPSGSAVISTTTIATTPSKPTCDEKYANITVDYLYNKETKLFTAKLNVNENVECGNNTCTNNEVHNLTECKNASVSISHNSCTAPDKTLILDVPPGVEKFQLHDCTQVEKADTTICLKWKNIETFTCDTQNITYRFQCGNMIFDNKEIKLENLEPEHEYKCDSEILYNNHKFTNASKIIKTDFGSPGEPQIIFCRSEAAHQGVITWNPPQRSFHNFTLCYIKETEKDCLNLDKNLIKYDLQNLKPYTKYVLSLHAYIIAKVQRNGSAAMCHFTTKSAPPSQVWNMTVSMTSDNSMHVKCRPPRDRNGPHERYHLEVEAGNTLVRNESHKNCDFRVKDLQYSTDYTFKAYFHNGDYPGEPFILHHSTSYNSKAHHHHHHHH
# Assay: SPR, Biacore T200, single cycle kinetics; VHH monomeric Fc fusion captured on Protein A chip, CD45 D1-D4 as analyte
# Procedure: The yeast display system as described above was employed to domain map the VHH binding sites. For labeling, His-tagged VHH proteins were incubated with the yeast and detected using an anti-VHH antibody. Seven VHH clonotypes bound across all four domains of CD45RO, with clonotypes 3, 4, and 7 targeting the D1 and D2 domains, clonotype 10 binding the D3 domain, clonotypes 2, 6, and 8 interacting with the D4 domain (Table 3).
# Affinities were determined using a Biacore T200 instrument by measuring Kon/Koff in single cycle kinetics mode. Hybridoma clones were either reformatted and expressed in the form of the parent IgG (gap8.3, 4B2, 9.4 as murine IgG2A, VHE as human IgG1), and scFvs were expressed as human IgG1 Fc fusions. For the anti-CD45 VHH, proteins were expressed as monomeric Fc fusions. […] Human CD45 D1-D4 was generated in house with a C-terminal 8×His tag (SEQ ID NO: 610) and expressed and purified from expi293 cells by standard Ni- and SEC chromatography methods. Kinetic affinity constants were calculated using the Biacore® T200 software package.
row,Molecule,Kd
1,B9,32 nM
2,B10,522 nM
3,B11,28 nM
4,B12,69 nM
5,B13,1.4 nM
6,B14,8.3 nM
7,B15,299 nM
8,B16,0.88 nM
